Measurements published in patent publication US20110182926A1, “[…]” (priority 2008, published 2011).

Columns and labels:
HLA-A*0201 [1] = target: T1, HLA-A*0201 (Homo sapiens, UniProt P04439, D140Y/D185E/D98H/E176V/E277Q/G131W/G231S/I119V/I121R/I166T/I218V/L300P/L318F/N151K/N90K/P208A/P217A/Q86G/Q94H/R138H/R169H/T345S); experiment: iTopia Epitope Discovery System binding affinity; conditions: hTERT analogs; FIG. 8
Method: (§1) Candidate epitopes and analogs are analyzed for the ability to bind to HLA-A*0201in-vitro using iTopia™ Epitope Discovery System (http://www.immunomics.com). This assay provides a method to determine the binding affinity and stability of a test peptide to any of several Class I HLA molecules, using fluorescent-labeled antibody that specifically recognizes HLA only when peptide is bound in the MHC-I groove.
as §1, with “HLA-A*0201 in-vitro” for “HLA-A*0201in-vitro”

HHD mice = experiment: Immunogenicity of additional CEA peptides in HHD mice (Example 9, ICS for IFNγ); format: in vivo; conditions: for fold more immunogenic than the natural peptide: HHD mice, ICS IFNγ; for fold more immunogenic than the natural peptide / immunogenicity (immune response against the natural target epitope): FIG. 7; for immunogenicity (immune response against the natural target epitope): 6 HHD mice, 100 μg peptide s.c., two injections, ICS IFNγ three weeks later
HLA-A*0201 [2] = target: T1, HLA-A*0201; experiment: In vitro cellular binding assay of CEA peptides on TAP-deficient T2 cells (FACS); conditions: 50 μM peptide, 18 hours at 37° C., FIG. 3
Method: To determine the binding ability of EI Suite-selected wild type peptides and analogs, an in vitro cellular binding assay was performed using the TAP-deficient cell line T2. T2 cells are HLA-A*0201 positive, MHC class II negative and TAP deficient, meaning that they lack a functional transporter associated with antigen presentation, so that they accumulate empty unstable class I molecules.
T2 cells were incubated with 50 μM peptide in serum-free RPMI 1640 supplemented with 5 μg/mL human β2m (Fluka) for 18 hours at 37° C. HLA-A*0201 expression was then measured by flow cytometry using the anti-HLA-A2.1 monoclonal antibody (mAb) BB7.2 followed by incubation with fluorescein isothiocyanate (FITC)-conjugated F(ab′)2 goat antimouse Ig (Biosource). The results are expressed as fluorescence index (FI) defined as a ratio (median channel of fluorescence) between the sample and a control without any peptide. An increase over the control of at least […] (FI>2) was arbitrarily chosen as the cutoff point.

HLA-A*0201 [3] = target: T1, HLA-A*0201; experiment: HLA-A*0201/peptide complex stability on T2 cells over time (FACS); format: binding; conditions: 50 μM peptide, 0-8 hours, FIG. 4
Method: To assess the HLA-A*0201/peptide complex stability, T2 cells (10^6/mL) were incubated overnight with 50 μM of each peptide in serum-free RPMI 1640 supplemented with 100 ng/mL human β2m at 37° C. Cells were then washed 4 times to remove free peptides, incubated for 1 hour with 10 ng/mL Brefeldin A (Sigma-Aldrich) to block cell surface expression of newly synthesized HLA-A*0201 molecules, washed, and incubated at 37° C. for 0, 2, 4, 6, or 8 hours. Subsequently, cells were stained with anti-HLA-A2.1 mAb BB7.2. For each time point, peptide-induced HLA-A*0201 expression was calculated as mean fluorescence value of peptide incubated T2 cells/mean fluorescence value T2 cells in the absence of the peptide. Dissociation complex 50 (DC50) was defined as the time required for the loss of 50% of the HLA-A*0201/peptide complexes stabilized at t=0.
Binding stability of the peptide-MHC complex was also evaluated over time. The CAP-1 peptide was used as positive control.

HLA-A*0201 on T2 cells [4] = target: T2, HLA-A*0201 on T2 cells (human); experiment: T2 cells, 50 uM peptide, surface HLA-A2 by FACS with BB7.2
T2 construct: Empty class I molecule on T2 cells; also called HLA-A2.1; A2.1

[5] = target: T3, HLA-A*0201 (iTopia Epitope Discovery System) (human); experiment: iTopia Epitope Discovery System binding assay
T3 construct: Commercial in vitro assay; also called Class I HLA molecule
Source text: This assay provides a method to determine the binding affinity and stability of a test peptide to any of several Class I HLA molecules, using fluorescent-labeled antibody that specifically recognizes HLA only when peptide is bound in the MHC-I groove.

HLA-A*0201 on T2 cells [6] = target: T2, HLA-A*0201 on T2 cells; experiment: assay not named there (T2 cell binding per paragraph 90)
Method: T2 cells were incubated with 50 μM peptide in serum-free RPMI 1640 supplemented with 5 μg/mL human β2m (Fluka) for 18 hours at 37° C. […] The results are expressed as fluorescence index (FI) defined as a ratio (median channel of fluorescence) between the sample and a control without any peptide. An increase over the control of at least 65% (FI>2) was arbitrarily chosen as the cutoff point.

540.V9: hTERT position 540 9-mer V9 analog of ILAKFLHWL, SEQ ID NO 15 (ILAKFLHWV)
binding affinity to HLA-A*0201 compared to the corresponding wild type peptide (HLA-A*0201 [1]): increase in binding affinity

540.V10: hTERT position 540 10-mer V10 analog of ILAKFLHWLM, SEQ ID NO 17 (ILAKFLHWLV)
binding affinity to HLA-A*0201 compared to the corresponding wild type peptide (HLA-A*0201 [1]): increase in binding affinity

688.L2: hTERT position 688 10-mer L2 analog of RAWRTFVLRV, SEQ ID NO 20 (RLWRTFVLRV)
binding affinity to HLA-A*0201 compared to the corresponding wild type peptide (HLA-A*0201 [1]): increase in binding affinity

ALVGIMIGV [CEA687L2]
fold more immunogenic than the natural peptide (HHD mice): about 3.4 fold | mice responded to the treatment (HHD mice; groups of 6 HHD mice): 100%

ATVGIMIGV [CEA687]
immunogenicity (immune response against the natural target epitope) (HHD mice): significantly immunogenic | mice responding to the vaccination (HHD mice; groups of 6 HHD mice): 4 out of 6

GLMIGVLVGV (Anchor-modified analog) [690L2]
binding to HLA-A*0201 compared to wild-type counterpart (HLA-A*0201 [2]): marked increase of binding

GLNRTTVTTV (Anchor-modified analog) [307V10]
binding to HLA-A*0201 compared to wild-type counterpart (HLA-A*0201 [2]): marked increase of binding

GLSAGATVGV (Anchor-modified analog) [682V10]
binding to HLA-A*0201 compared to wild-type counterpart (HLA-A*0201 [2]): marked increase of binding | stability of peptide-MHC complex compared to wild-type counterpart (HLA-A*0201 [3]): improved stability

IMIGVLVGV [CEA691]
immunogenicity (immune response against the natural target epitope) (HHD mice): immunogenic

RLTVTTITV (Anchor-modified analog) [CEA310L2]
immunogenicity (immune response against the natural target epitope) (HHD mice): extremely powerful in eliciting a cross reactive immune response | fold more immunogenic than the natural peptide (HHD mice): 123 fold

VLYGPDDPTV (Anchor-modified analog) [411V10]
binding to HLA-A*0201 compared to wild-type counterpart (HLA-A*0201 [2]): marked increase of binding | stability of peptide-MHC complex compared to wild-type counterpart (HLA-A*0201 [3]): improved stability

GLNRTTVTTV (Anchor-modified analog of a CEA peptide) [CEA.307V10 (GLNRTTVTTV)]
binding result (HLA-A*0201 on T2 cells [4]): binds

B1: hTERT.934, 9-mer, w.t. (LLDTRTLEV) (peptide)
peptide: LLDTRTLEV
notes: Fragment of hTERT (SwissProt O14746, printed); The range is worked out from the printed position and length
binding affinity (% of positive control) [5]: 30 % of the positive control

B2: hTERT position 544, 10-mer, w.t. (FLHWLMSVYV) (peptide)
peptide: FLHWLMSVYV
notes: as for B1
binding affinity (% of positive control) [5]: 30 % of the positive control

B3: CEA.690L2 (GLMIGVLVGV) (peptide)
peptide: GLMIGVLVGV
notes: Anchor-modified analog of a CEA peptide; leucine at position 2
binding result (HLA-A*0201 on T2 cells [4]): binds

B4: hTERT position 688, 10-mer, w.t. (RAWRTFVLRV) (peptide)
peptide: RAWRTFVLRV
notes: as for B1
binding affinity (% of positive control) [5]: 30 % of the positive control

GLSAGATVGV (Anchor-modified analog of a CEA peptide) [CEA.682V10 (GLSAGATVGV)]
binding result (HLA-A*0201 on T2 cells [4]): binds

IMIGVLVGV (Wild type CEA 9-mer) [CEA.691 (IMIGVLVGV)]
binding result (HLA-A*0201 on T2 cells [6]): binds

B5: hTERT position 540, 10-mer, w.t. (ILAKFLHWLM) (peptide)
peptide: ILAKFLHWLM
notes: Fragment of hTERT (SwissProt O14746, printed)
binding affinity (% of positive control) [5]: 30 % of the positive control

B6: hTERT position 865, 9-mer, w.t. (RLVDDFLLV) (peptide)
peptide: RLVDDFLLV
notes: as for B1
binding affinity (% of positive control) [5]: 30 % of the positive control

FLVDDFLLV (type F1) [hTERT 865.F1 analog]
binding result [5]: binds

B7: hTERT position 30, 9-mer, w.t. (RLGPQGWRL) (peptide)
peptide: RLGPQGWRL
notes: as for B1
binding affinity (% of positive control) [5]: 30 % of the positive control

VLYGPDTPIV (Anchor-modified analog of a CEA peptide) [CEA.589V10 (VLYGPDTPIV)]
binding result (HLA-A*0201 on T2 cells [4]): binds

B8: hTERT position 986, 9-mer, w.t. (FLDLQVNSL) (peptide)
peptide: FLDLQVNSL
notes: as for B1
binding affinity (% of positive control) [5]: 30 % of the positive control

B9: hTERT position 540, 9-mer, w.t. (ILAKFLHWL) (peptide)
peptide: ILAKFLHWL
notes: as for B1
binding affinity (% of positive control) [5]: 30 % of the positive control

ILAKFLHWV (type V9) [hTERT 540.V9 analog]
binding result [5]: binds
